According to publication PMC2927781, “Allosteric Remodelling of the Histone H3 Binding Pocket in the Pygo2 PHD Finger Triggered by Its Binding to the B9L/BCL9 Co-Factor” (Journal of Molecular Biology, 2010):

B1: PHD_(Pygo1)–HD1_(BCL9) complex with Pygo1 W390F (complex)
chain: VYPCGICTNEVNDDQDAILCEASCQKWFHRICTGMTETAYGLLTAEASAVFGCDTCMADKDVYVFSTEMANKAAEAVLKGQVETIVSFHI
B2: PHD_(Pygo1)–HD1_(BCL9) complex with Pygo1 I357A (complex)
chain: VYPCGICTNEVNDDQDAALCEASCQKWFHRICTGMTETAYGLLTAEASAVWGCDTCMADKDVYVFSTEMANKAAEAVLKGQVETIVSFHI

Target: T1, 15-mer H3K4me2 histone tail peptide (histone H3 tail dimethylated at lysine 4) (dimethyl-lysine at K4)
T1 construct: histone H3 N-terminal tail, 15-mer peptide, K4 dimethylated; numbers count on: the mature protein (A1 is the N-terminal residue); Surmise: residues 1-15 of the mature histone H3 (A1 to A15); also called dimethylated histone H3 tail peptide
Assay: ITC; H3K4me2 peptide injected (19 x 2 ul) into the protein; 25 °C; 25 mM Tris pH 8.0, 100 mM NaCl; iTC 200; one-site model
Conditions: both partners purified

| Binder | Kd [µM] |
| --- | --- |
| B1 | 10.3 |
| B2 | 13.5 |
